Measured values reported in patent publication US20090131317A1, “COMPOUNDS AND PEPTIDES THAT BIND THE TRAIL RECEPTOR” (AFFYMAX, INC., priority 2007, published 2009).
Blank lines part the entries; values can stand above or below the molecule they belong to. Numbered stars: 1 amine (or outer) side, 2 acyl side, 3 side chain; on linkers, the order of the positions; unused ones are H or OH. Bridge positions count the residues as written; N and C are the ends. Peptide text beside a SMILES is read from it. I, II: the chains in the order shown. TSAT = Tris-succinimidyl aminotriacetate linker; X1 = O=C(CN(CC(=O)[*:2])CC(=O)[*:3])[*:1]; Diglycolyl = O=C(COCC(=O)[*:2])[*:1]; DIG = diglycolic acid linker

Legend:
[1] = test system: Jurkat cells; type: cell-based
Experimental: The apoptotic activity of test peptides is measured using a Jurkat proliferation assay.
Jurkat cells are obtained from the American Type Culture Collection (ATCC, Manassas, Va.) and are maintained in RPMI-1640 medium supplemented with 10% FBS, 100 U/mL penicillin, and 100 […] (Growth Medium). […] Cells are resuspended at a density of 1×10^6 cells/mL in Growth Medium, and 50 μl cells is added to each well of the assay plates. The plates are incubated in a 37° C., 5% CO2 incubator for 24-48 hours. Proliferation is assessed by adding 10 μL of MTT stock solution (ATCC, Manassas, Va.) to the wells. The plates are incubated in a 37° C., 5% CO2 incubator for another 2-4 hours, followed by the addition of 100 μL of 20% SDS with 0.01 N HCl. After incubation overnight in a 37° C., 5% CO2 incubator, the plates are quantified by reading the optical density at a wavelength of 595 nm (OD595) in a SpectraMax® M5 microplate reader (Molecular Devices, Sunnyvale, Calif.). The data are analyzed using GraphPad Prism® software (La Jolla, Calif.) to calculate IC50 values from a 4-parameter logistic equation.

[2] = test system: HCT-116 cells; type: cell-based
Experimental: The apoptotic activity of test peptides is measured using an HCT-116 proliferation assay. The HCT-116 assay is used to measure the activity of TRAIL R2 agonist peptides using the colon carcinoma cell line HCT-116 (ATCC, Manassas, Va.).
In more detail, a peptide homotrimer based on the peptide monomer sequence of SEQ ID NO: 19 (See, FIG. 8B) is tested for functional activity using the HCT-116 proliferation assay. HCT-116 cells are incubated for one to two days in the presence of serially diluted peptide dimers or peptide trimers. […]
Cell viability is measured using an MTT colorimetric viability assay, a colorimetric assay that analyzes the number of viable cells by measuring the ability of mitochondrial dehydrogenase enzyme in the viable cells to cleave tetrazolium salts added to the culture medium [See, Mosmann (1983) J. Immunol. […] Using this assay, cell proliferation is assessed after 24-48 hours by adding 10 μL of MTT stock solution (ATCC, Manassas, Va.) to the wells. […] After incubation overnight in a 37° C., 5% CO2 incubator, the plates are quantified by reading the optical density at 595 nm (OD595) in a SpectraMax M5 microplate reader (Molecular Devices, Sunnyvale, Calif.). The data are analyzed using GraphPad® Prism software (La Jolla, Calif.) to calculate IC50 values from a 4-parameter logistic equation.

[3] = biological target: TRAIL R2 receptor on HCT-116 or Jurkat cells (UniProt O14763 56-440, limits assumed); experiment: cell-based or functional assay
[4] = biological target: T1, Recombinant human TRAIL R2-Fc fusion protein (R&D Systems) (human, UniProt O14763 52-182, limits assumed); experiment: AlphaQuest competition: displaces biotinylated TRAIL ligand from human TRAIL R2-Fc
T1 construct: Bought from R&D Systems; held on protein A-coated acceptor beads in the AlphaQuest/AlphaScreen assay; also called TRAIL R2 receptor; R2 receptor; not shown: Fc part of the bought fusion protein
Experimental: The plates are sealed with adhesive sealing film and covered with aluminum foil, centrifuged at 600 rpm for 30 seconds and incubated overnight in the dark. […] The raw data are analyzed using GraphPad Prism® software (La Jolla, Calif.) to calculate IC₅₀ values from a 4-parameter logistic equation.
The binding affinity of the antagonist peptides and peptide-based compounds of the invention are measured according to the AlphaQuest® Competitive Binding Assay, described above, in Example 1.1. The IC₅₀ values are determined for each test peptide or test compound. The compounds tested are homodimers and homotrimers of peptides comprising the amino sequence set forth in SEQ ID NOs: 33 and 34, linked by DIG or TSAT, respectively.

Molecule: CC(=O)N[C@@H](Cc1c[nH]c2ccccc12)C(=O)N[C@@H](CC(=O)O)C(=O)N[C@H]1CSSC[C@@H](C(=O)N[C@H](C(=O)N[C@@H](CCCNC(=N)N)C(=O)N[C@@H](CC(C)C)C(=O)N[C@@H](CCC(=O)O)C(=O)N[C@@H](CCCCNC(=O)COCC(=O)NCCCC[C@H](NC(=O)[C@H](CCC(=O)O)NC(=O)[C@H](CC(C)C)NC(=O)[C@H](CCCNC(=N)N)NC(=O)[C@@H](NC(=O)[C@@H]2CSSC[C@H](NC(=O)[C@H](CC(=O)O)NC(=O)[C@H](Cc3c[nH]c4ccccc34)NC(C)=O)C(=O)N[C@@H](CC(C)C)C(=O)N[C@@H](C(C)C)C(=O)N[C@@H](CC(=O)O)C(=O)N[C@@H](CCCNC(=N)N)C(=O)N3CCC[C@H]3C(=O)NCC(=O)N[C@@H](CCCNC(=N)N)C(=O)N[C@@H](CCCNC(=N)N)C(=O)N[C@@H](CCC(N)=O)C(=O)N2)C(C)C)C(N)=O)C(N)=O)C(C)C)NC(=O)[C@H](CCC(N)=O)NC(=O)[C@H](CCCNC(=N)N)NC(=O)[C@H](CCCNC(=N)N)NC(=O)CNC(=O)[C@@H]2CCCN2C(=O)[C@H](CCCNC(=N)N)NC(=O)[C@H](CC(=O)O)NC(=O)[C@H](C(C)C)NC(=O)[C@H](CC(C)C)NC1=O [SEQ ID NO: 29 homodimer] (I: Ac-WDCLVDRPGRRQCVRLEK-NH2 / II: Ac-WDCLVDRPGRRQCVRLEK-NH2; disulfide I:3-I:13, II:3-II:13 (inferred); linker I:18-II:18 via Diglycolyl (inferred))
EC50 [1]: 1300 to 1660 nM

Molecule: I: Ac-WDCLDNRIGRRQCVKL-NH2 / II: Ac-WDCLDNRIGRRQCVKL-NH2 / III: Ac-WDCLDNRIGRRQCVKL-NH2 (disulfide I:3-I:13, II:3-II:13, III:3-III:13 (inferred); linker I:15-II:15-III:15 via X1 (inferred)) [SEQ ID NO: 19 homotrimer]
EC50 [2]: ~480 nM

B2: peptide homodimer based on the monomer amino acid sequence of SEQ ID NO: 33, DIG linker (peptide)
peptide: Ac-WDCLDNRIGK(DIG)RQCVR-NH2
modifications: disulfide 3-13 (inferred); also: homodimer joined by DIG linker at Lys10
notes: also called 33 Dimer DIG
EC50, Jurkat antagonist assay (inhibition of TRAIL ligand-induced apoptosis) [3]: 5440 nM
IC50 [4]: 0.111 nM

B3: peptide homodimer based on the monomer amino acid sequence of SEQ ID NO: 34, DIG linker (peptide)
peptide: Ac-WDCLDNRIGK(DIG)RQCVRA-NH2
modifications: disulfide 3-13 (inferred); also: homodimer joined by DIG linker at Lys10
notes: also called 34 Dimer DIG
EC50, Jurkat antagonist assay (inhibition of TRAIL ligand-induced apoptosis) [3]: 1580 nM
IC50 [4]: 0.06 nM

Next, values leading:

EC50 [1]: 611 to 1090 nM
Molecule: CC(=O)N[C@@H](Cc1c[nH]c2ccccc12)C(=O)N[C@@H](CC(=O)O)C(=O)N[C@H]1CSSC[C@@H](C(=O)N[C@H](C(=O)N[C@@H](CCCNC(=N)N)C(=O)N[C@@H](CC(C)C)C(=O)N[C@@H](CCC(=O)O)C(=O)N[C@@H](CCCNC(=N)N)C(=O)N[C@@H](CCCCNC(=O)COCC(=O)NCCCC[C@H](NC(=O)[C@H](CCCNC(=N)N)NC(=O)[C@H](CCC(=O)O)NC(=O)[C@H](CC(C)C)NC(=O)[C@H](CCCNC(=N)N)NC(=O)[C@@H](NC(=O)[C@@H]2CSSC[C@H](NC(=O)[C@H](CC(=O)O)NC(=O)[C@H](Cc3c[nH]c4ccccc34)NC(C)=O)C(=O)N[C@@H](CC(C)C)C(=O)N[C@@H](C(C)C)C(=O)N[C@@H](CC(=O)O)C(=O)N[C@@H](CCCNC(=N)N)C(=O)N3CCC[C@H]3C(=O)NCC(=O)N[C@@H](CCCNC(=N)N)C(=O)N[C@@H](CCCNC(=N)N)C(=O)N[C@@H](CCC(N)=O)C(=O)N2)C(C)C)C(N)=O)C(N)=O)C(C)C)NC(=O)[C@H](CCC(N)=O)NC(=O)[C@H](CCCNC(=N)N)NC(=O)[C@H](CCCNC(=N)N)NC(=O)CNC(=O)[C@@H]2CCCN2C(=O)[C@H](CCCNC(=N)N)NC(=O)[C@H](CC(=O)O)NC(=O)[C@H](C(C)C)NC(=O)[C@H](CC(C)C)NC1=O [SEQ ID NO: 30 homodimer] (I: Ac-WDCLVDRPGRRQCVRLERK-NH2 / II: Ac-WDCLVDRPGRRQCVRLERK-NH2; disulfide I:3-I:13, II:3-II:13 (inferred); linker I:19-II:19 via Diglycolyl (inferred))

EC50 [1]: > 22000 nM
Molecule: CC(=O)N[C@@H](Cc1c[nH]c2ccccc12)C(=O)N[C@@H](CC(=O)O)C(=O)N[C@H]1CSSC[C@@H](C(=O)N[C@H](C(=O)N[C@@H](CCCCNC(=O)COCC(=O)NCCCC[C@H](NC(=O)[C@@H](NC(=O)[C@@H]2CSSC[C@H](NC(=O)[C@H](CC(=O)O)NC(=O)[C@H](Cc3c[nH]c4ccccc34)NC(C)=O)C(=O)N[C@@H](CC(C)C)C(=O)N[C@@H](C(C)C)C(=O)N[C@@H](CC(=O)O)C(=O)N[C@@H](CCCNC(=N)N)C(=O)N3CCC[C@H]3C(=O)NCC(=O)N[C@@H](CCCNC(=N)N)C(=O)N[C@@H](CCCNC(=N)N)C(=O)N[C@@H](CCC(N)=O)C(=O)N2)C(C)C)C(=O)N[C@@H](CC(C)C)C(=O)N[C@@H](CCC(=O)O)C(=O)N[C@@H](CCCNC(=N)N)C(N)=O)C(=O)N[C@@H](CC(C)C)C(=O)N[C@@H](CCC(=O)O)C(=O)N[C@@H](CCCNC(=N)N)C(N)=O)C(C)C)NC(=O)[C@H](CCC(N)=O)NC(=O)[C@H](CCCNC(=N)N)NC(=O)[C@H](CCCNC(=N)N)NC(=O)CNC(=O)[C@@H]2CCCN2C(=O)[C@H](CCCNC(=N)N)NC(=O)[C@H](CC(=O)O)NC(=O)[C@H](C(C)C)NC(=O)[C@H](CC(C)C)NC1=O [SEQ ID NO: 31 homodimer] (I: Ac-WDCLVDRPGRRQCVKLER-NH2 / II: Ac-WDCLVDRPGRRQCVKLER-NH2; disulfide I:3-I:13, II:3-II:13 (inferred); linker I:15-II:15 via Diglycolyl (inferred))

EC50, Jurkat antagonist assay (inhibition of TRAIL ligand-induced apoptosis) [3]: 323 nM
IC50 [4]: 0.038 nM
B1: peptide homotrimer based on the monomer amino acid sequence of SEQ ID NO: 34, TSAT linker (peptide)
peptide: Ac-WDCLDNRIGK(TSAT)RQCVRA-NH2
modifications: disulfide 3-13 (inferred); also: homotrimer joined by TSAT linker at Lys10
